The numbers were not newly measured in paper PMC8544432, which cites them from elsewhere.

The term pKd denotes the negative decadic logarithm of the Kd, by convention in mol/L.

Data set [1] concerns the target PBX1 (Homo sapiens) (UniProt P40424).
The target is the same in data set [2]. This is another data set of the same source.

pKd: −log10 of the molar value. Like-named read-outs stand apart in the source and are kept apart here.

Sequence of UniProt P40424 (P40424 whole entry): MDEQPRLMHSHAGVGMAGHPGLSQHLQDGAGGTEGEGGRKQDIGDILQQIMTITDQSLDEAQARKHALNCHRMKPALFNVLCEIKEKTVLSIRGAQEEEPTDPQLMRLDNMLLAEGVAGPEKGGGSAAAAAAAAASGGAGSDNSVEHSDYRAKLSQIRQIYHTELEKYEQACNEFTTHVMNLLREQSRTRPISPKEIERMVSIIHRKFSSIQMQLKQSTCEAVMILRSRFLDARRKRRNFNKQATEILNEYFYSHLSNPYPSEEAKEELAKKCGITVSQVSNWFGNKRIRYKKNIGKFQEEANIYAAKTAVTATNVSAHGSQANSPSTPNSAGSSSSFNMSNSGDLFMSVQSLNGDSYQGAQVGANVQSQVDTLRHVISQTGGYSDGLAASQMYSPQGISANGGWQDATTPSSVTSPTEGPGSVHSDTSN

Consider PREP1 (from UniProt P55347), for which the negative-log Kd (pKd) with PBX1 (Homo sapiens) [1] was 7.74. As for MEIS1 (from UniProt O00470), the pKd in the data set with PBX1 (Homo sapiens) [2] was 7.10.
